Assays:
SEC-MALS = target: the molecule itself; assay: SEC-MALS
[…] = target: the molecule itself; assay: […]
[1] = target: T1, Gemin5 cleavage fragment p85, wild type, with C-terminal TAP tag (human, UniProt Q8TEQ6 845-1508); assay: co-IP
T1 sequence: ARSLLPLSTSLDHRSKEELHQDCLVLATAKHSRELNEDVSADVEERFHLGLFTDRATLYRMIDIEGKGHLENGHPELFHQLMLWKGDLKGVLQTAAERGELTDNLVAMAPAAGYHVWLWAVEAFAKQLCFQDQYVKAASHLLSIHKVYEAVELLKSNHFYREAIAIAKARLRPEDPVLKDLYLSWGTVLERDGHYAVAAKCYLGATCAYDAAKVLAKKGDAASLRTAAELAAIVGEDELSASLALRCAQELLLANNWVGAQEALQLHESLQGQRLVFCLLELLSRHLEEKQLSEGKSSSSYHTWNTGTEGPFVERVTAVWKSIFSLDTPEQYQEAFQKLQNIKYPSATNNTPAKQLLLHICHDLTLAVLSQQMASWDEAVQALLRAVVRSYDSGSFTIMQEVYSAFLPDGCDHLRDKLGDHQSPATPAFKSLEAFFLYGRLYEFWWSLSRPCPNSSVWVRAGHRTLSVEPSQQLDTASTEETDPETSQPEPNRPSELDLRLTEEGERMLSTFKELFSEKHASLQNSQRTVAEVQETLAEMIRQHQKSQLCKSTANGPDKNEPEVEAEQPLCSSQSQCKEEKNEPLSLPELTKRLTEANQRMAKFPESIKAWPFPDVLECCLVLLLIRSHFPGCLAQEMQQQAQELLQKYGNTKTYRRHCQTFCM

[2] = target: G5-TPR (Gemin5 TPR-like dimerization domain) (Homo sapiens, UniProt Q8TEQ6 807-1097); assay: EMSA

B1: Gemin5 TPR-like domain (residues 807-1097), wild type (domain or fragment)
chain: TPVSSGFEKSKVTINNKVILLKKEPPKEKPETLIKKRKARSLLPLSTSLDHRSKEELHQDCLVLATAKHSRELNEDVSADVEERFHLGLFTDRATLYRMIDIEGKGHLENGHPELFHQLMLWKGDLKGVLQTAAERGELTDNLVAMAPAAGYHVWLWAVEAFAKQLCFQDQYVKAASHLLSIHKVYEAVELLKSNHFYREAIAIAKARLRPEDPVLKDLYLSWGTVLERDGHYAVAAKCYLGATCAYDAAKVLAKKGDAASLRTAAELAAIVGEDELSASLALRCAQELLL
With B1 the “stoichiometry N” value (SEC-MALS) was 2.

B2: Gemin5 TPR-like domain (residues 807-1097) A951E (domain or fragment)
chain: TPVSSGFEKSKVTINNKVILLKKEPPKEKPETLIKKRKARSLLPLSTSLDHRSKEELHQDCLVLATAKHSRELNEDVSADVEERFHLGLFTDRATLYRMIDIEGKGHLENGHPELFHQLMLWKGDLKGVLQTAAERGELTDNLVEMAPAAGYHVWLWAVEAFAKQLCFQDQYVKAASHLLSIHKVYEAVELLKSNHFYREAIAIAKARLRPEDPVLKDLYLSWGTVLERDGHYAVAAKCYLGATCAYDAAKVLAKKGDAASLRTAAELAAIVGEDELSASLALRCAQELLL
In the case of B2, the “stoichiometry N” value ([…]) is reported as 2.

B3: Gemin5, full-length endogenous protein (natural protein)
chain: MGQEPRTLPPSPNWYCARCSDAVPGGLFGFAARTSVFLVRVGPGAGESPGTPPFRVIGELVGHTERVSGFTFSHHPGQYNLCATSSDDGTVKIWDVETKTVVTEHALHQHTISTLHWSPRVKDLIVSGDEKGVVFCYWFNRNDSQHLFIEPRTIFCLTCSPHHEDLVAIGYKDGIVVIIDISKKGEVIHRLRGHDDEIHSIAWCPLPGEDCLSINQEETSEEAEITNGNAVAQAPVTKGCYLATGSKDQTIRIWSCSRGRGVMILKLPFLKRRGGGIDPTVKERLWLTLHWPSNQPTQLVSSCFGGELLQWDLTQSWRRKYTLFSASSEGQNHSRIVFNLCPLQTEDDKQLLLSTSMDRDVKCWDIATLECSWTLPSLGGFAYSLAFSSVDIGSLAIGVGDGMIRVWNTLSIKNNYDVKNFWQGVKSKVTALCWHPTKEGCLAFGTDDGKVGLYDTYSNKPPQISSTYHKKTVYTLAWGPPVPPMSLGGEGDRPSLALYSCGGEGIVLQHNPWKLSGEAFDINKLIRDTNSIKYKLPVHTEISWKADGKIMALGNEDGSIEIFQIPNLKLICTIQQHHKLVNTISWHHEHGSQPELSYLMASGSNNAVIYVHNLKTVIESSPESPVTITEPYRTLSGHTAKITSVAWSPHHDGRLVSASYDGTAQVWDALREEPLCNFRGHRGRLLCVAWSPLDPDCIYSGADDFCVHKWLTSMQDHSRPPQGKKSIELEKKRLSQPKAKPKKKKKPTLRTPVKLESIDGNEEESMKENSGPVENGVSDQEGEEQAREPELPCGLAPAVSREPVICTPVSSGFEKSKVTINNKVILLKKEPPKEKPETLIKKRKARSLLPLSTSLDHRSKEELHQDCLVLATAKHSRELNEDVSADVEERFHLGLFTDRATLYRMIDIEGKGHLENGHPELFHQLMLWKGDLKGVLQTAAERGELTDNLVAMAPAAGYHVWLWAVEAFAKQLCFQDQYVKAASHLLSIHKVYEAVELLKSNHFYREAIAIAKARLRPEDPVLKDLYLSWGTVLERDGHYAVAAKCYLGATCAYDAAKVLAKKGDAASLRTAAELAAIVGEDELSASLALRCAQELLLANNWVGAQEALQLHESLQGQRLVFCLLELLSRHLEEKQLSEGKSSSSYHTWNTGTEGPFVERVTAVWKSIFSLDTPEQYQEAFQKLQNIKYPSATNNTPAKQLLLHICHDLTLAVLSQQMASWDEAVQALLRAVVRSYDSGSFTIMQEVYSAFLPDGCDHLRDKLGDHQSPATPAFKSLEAFFLYGRLYEFWWSLSRPCPNSSVWVRAGHRTLSVEPSQQLDTASTEETDPETSQPEPNRPSELDLRLTEEGERMLSTFKELFSEKHASLQNSQRTVAEVQETLAEMIRQHQKSQLCKSTANGPDKNEPEVEAEQPLCSSQSQCKEEKNEPLSLPELTKRLTEANQRMAKFPESIKAWPFPDVLECCLVLLLIRSHFPGCLAQEMQQQAQELLQKYGNTKTYRRHCQTFCM
With B3 the “fold recruitment against p85-A951E” value [1] was 10 fold.

B4: dsDNA H1-24-s/H1-24-as (dsDNA)
DNA 1: AATTCCCCAAATTCCAGTGTCTGGGTAAG
DNA 2: TCGACTTACCCAGACACTGGAATTTGGGG
B4: no binding [2].

AATTCCCCAAATTCCAGTGTCTGGGTAAG (ssDNA) [ssDNA H1-24-s (29 nt)]: no binding [2].

From PMC6954437 (Nucleic Acids Research, 2019)
